Experimental data from patent US20230265168A1 (BEIJING KAWIN TECHNOLOGY SHARE, published 2023).
Substitutions are numbered along the chain they refer to.

B1: antibody 021-M34 (antibody, human IgG1, kappa, V domains shown)
VH: not shown
VL: DIQLTQSPSSLSASVGDRVTITCRASASISTYLNWYQQKPGKAPKLLIYAASSLQSGVPSRFSGSGSGTDFTLTISSLQPEDFATYYCQQSYSTPLTFGGGTKVDIKR
notes: 021 with X34 (LCDR1) Q to A
B2: antibody 021-M35 (antibody, human IgG1, kappa, V domains shown)
VH: not shown
VL: B1 VL with A27Q, S28A
notes: 021 with X35 (LCDR1) S to A
B3: antibody 021-M36 (antibody, human IgG1, kappa, V domains shown)
VH: not shown
VL: B1 VL with A27Q, I29A
notes: 021 with X36 (LCDR1) I to A
B4: antibody 021-M39 (antibody, human IgG1, kappa, V domains shown)
VH: not shown
VL: B1 VL with A27Q, Y32A
notes: 021 with X39 (LCDR1) Y to A
B5: antibody 021-M40 (antibody, human IgG1, kappa, V domains shown)
VH: not shown
VL: B1 VL with A27Q, A50S
notes: 021 with X40 (LCDR2) A to S
B6: antibody 021-M41 (antibody, human IgG1, kappa, V domains shown)
VH: not shown
VL: B1 VL with A27Q, A51S
notes: 021 with X41 (LCDR2) A to S
B7: antibody 021-M42 (antibody, human IgG1, kappa, V domains shown)
VH: not shown
VL: B1 VL with A27Q, S52A
notes: 021 with X42 (LCDR2) S to A
B8: antibody 095 (antibody, human IgG1, kappa, V domains shown)
VH: not shown
VL: B1 VL with A27Q, T31S, Y49S, E81G, F83L, D105E
B9: antibody 083 (antibody, human IgG1, kappa, V domains shown)
VH: EVQLVQSGAEVKKPGASVKVSCKASGYTFTYYYMHWVRQAPGQGLEWMGWINPNSGGTNYAQKFQGRVTITADKSTSTAYMELSSLRSEDTAVYYCARDVWQQGGYYYYMDVWGKGTLVTVSS
VL: not shown
B10: antibody 090 (antibody, human IgG1, kappa, V domains shown)
VH: EVQLVQSGAEVKKPGASMKVSCKASGYTFTDYYIHWVRQAPGQGPEWMGWINPNSGGTNYAQKFQGRVTMTRDTSISTAYMELSRLRSDDTAVYYCARDLWNDDVDYYGMDVWGKGTMVTVSS
VL: EIVLTQSPGTLSLSPGERATLSCRASQSVSSYLAWYQQKPGQAPRLLIYGASSRATGIPARFSGSGSGTEFTLTISSLQSEDFATYYCQQSYSTPLTFGPGTKVEIKR
B11: antibody 091 (antibody, human IgG1, kappa, V domains shown)
VH: B10 VH
VL: B10 VL with G9A, G50D, S53N, E70D, Q79E, S80P, P100G, E105D
B12: antibody 093 (antibody, human IgG1, kappa, V domains shown)
VH: B10 VH
VL: B1 VL with A27Q, T31S, A50D, D70E, S76R, V104L, D105E
B13: antibody 096 (antibody, human IgG1, kappa, V domains shown)
VH: not shown
VL: ETTLTQSPSTLSASVGDRVTITCRASQSISSYLNWYQQKPGKAPQLLIYTASSLQSGVPSRFSGSGSGTDFTLTISSLQPEDFATYYCQQSYSTPLTFGQGTRLEIKR

target: T1, HBsAg protein (hepatitis B virus surface antigen) (hepatitis B virus, UniProt P03140 175-400); test: ELISA on coated HBsAg; grade from OD450 ratio to 021 at 4 ug/ml
T1 construct: Coated on the ELISA plate at 20 ug/ml; also called HBsAg antigen
T1 sequence (P03140 175-400, tags left off): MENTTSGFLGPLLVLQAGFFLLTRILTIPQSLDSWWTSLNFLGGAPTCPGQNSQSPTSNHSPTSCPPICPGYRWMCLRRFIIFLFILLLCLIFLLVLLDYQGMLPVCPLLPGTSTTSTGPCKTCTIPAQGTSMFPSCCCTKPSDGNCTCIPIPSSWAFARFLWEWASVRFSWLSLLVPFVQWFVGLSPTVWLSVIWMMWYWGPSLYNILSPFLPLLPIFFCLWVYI

| Binder | ratio of OD450 at 4 ug/ml to OD450 of antibody 021 at 4 ug/ml |
| --- | --- |
| B1 | 0.8 to 1.1 ratio |
| B2 | 0.8 to 1.1 ratio |
| B3 | 0.4 to 0.6 ratio |
| B4 | 0.4 to 0.6 ratio |
| B5 | > 1.1 ratio |
| B6 | 0.8 to 1.1 ratio |
| B7 | 0.6 to 0.8 ratio |
| B8 | > 1.1 ratio |
| B9 | > 1.1 ratio |
| B10 | 0.8 to 1.1 ratio |
| B11 | 0.8 to 1.1 ratio |
| B12 | > 1.1 ratio |
| B13 | > 1.1 ratio |
